Measured values taken from the supplement of paper PMC11246515.
± gives the standard deviation of the averaged measurements.

Experiment: total protein half-life in vivo (active degradation + dilution); higher = more stable protein
[1] = E. coli NCM3722 delta-clpP delta-lon delta-hslV, growth: N-lim chemostat, doubling time 6 h
[2] = E. coli NCM3722 delta-clpP, growth: N-lim chemostat, doubling time 6 h
[3] = E. coli NCM3722 delta-lon, growth: N-lim chemostat, doubling time 6 h
[4] = E. coli NCM3722 delta-smpB, growth: N-lim chemostat, doubling time 6 h
[5] = wild type E. coli NCM3722, growth: C-lim chemostat, doubling time 6 h
[6] = wild type E. coli NCM3722, growth: C-lim chemostat, doubling time 12 h
[7] = wild type E. coli NCM3722, growth: N-lim chemostat, doubling time 6 h
[8] = wild type E. coli NCM3722, growth: N-lim chemostat, doubling time 12 h
[9] = wild type E. coli NCM3722, growth: P-lim chemostat, doubling time 6 h
[10] = wild type E. coli NCM3722, growth: P-lim chemostat, doubling time 12 h
[11] = E. coli NCM3722 delta-hslV, growth: N-lim chemostat, doubling time 6 h
[12] = wild type E. coli NCM3722, growth: C-lim chemostat, doubling time 3 h

Sequence: MQKRAIYPGTFDPITNGHIDIVTRATQMFDHVILAIAASPSKKPMFTLEERVALAQQATAHLGNVEVVGFSDLMANFARNQHATVLIRGLRAVADFEYEMQLAHMNRHLMPELESVFLMPSKEWSFISSSLVKEVARHQGDVTHFLPENVHQALMAKLA [P0A6I6]
- total protein half-life in vivo [1]: 4.49 h
- total protein half-life in vivo [2]: 5.11 ± 0.59 h
- total protein half-life in vivo [3]: 5.58 h
- total protein half-life in vivo [4]: 4.82 ± 1 h
- total protein half-life in vivo [5]: 6.01 ± 0.25 h
- total protein half-life in vivo [6]: 10.8 h
- total protein half-life in vivo [7]: 4.62 h
- total protein half-life in vivo [8]: 7.33 ± 0.35 h
- total protein half-life in vivo [9]: 6.14 ± 0.072 h
- total protein half-life in vivo [10]: 12.9 ± 1 h

Sequence: MTLQQQIIKALGAKPQINAEEEIRRSVDFLKSYLQTYPFIKSLVLGISGGQDSTLAGKLCQMAINELRLETGNESLQFIAVRLPYGVQADEQDCQDAIAFIQPDRVLTVNIKGAVLASEQALREAGIELSDFVRGNEKARERMKAQYSIAGMTSGVVVGTDHAAEAITGFFTKYGDGGTDINPLYRLNKRQGKQLLAALACPEHLYKKAPTADLEDDRPSLPDEVALGVTYDNIDDYLEGKNVPQQVARTIENWYLKTEHKRRPPITVFDDFWKK
- total protein half-life in vivo [1]: 4.93 ± 0.19 h
- total protein half-life in vivo [2]: 5.28 ± 1.6 h
- total protein half-life in vivo [11]: 4.91 ± 0.29 h
- total protein half-life in vivo [3]: 5.15 ± 0.71 h
- total protein half-life in vivo [4]: 4.58 ± 0.013 h
- total protein half-life in vivo [12]: 3.37 ± 0.64 h
- total protein half-life in vivo [5]: 6.28 ± 0.098 h
- total protein half-life in vivo [6]: 11.06 ± 0.038 h
- total protein half-life in vivo [7]: 4.67 ± 0.63 h
- total protein half-life in vivo [8]: 7.98 ± 0.17 h
- total protein half-life in vivo [9]: 5.737 ± 0.042 h
- total protein half-life in vivo [10]: 11.6 ± 0.31 h

Sequence: MLMLFLTVAMVHIVALMSPGPDFFFVSQTAVSRSRKEAMMGVLGITCGVMVWAGIALLGLHLIIEKMAWLHTLIMVGGGLYLCWMGYQMLRGALKKEAVSAPAPQVELAKSGRSFLKGLLTNLANPKAIIYFGSVFSLFVGDNVGTTARWGIFALIIVETLAWFTVVASLFALPQMRRGYQRLAKWIDGFAGALFAGFGIHLIISR [P0AG38]
- total protein half-life in vivo [2]: 1.14 h
- total protein half-life in vivo [11]: 0.979 h
- total protein half-life in vivo [3]: 0.822 h
- total protein half-life in vivo [4]: 1.13 ± 0.1 h
- total protein half-life in vivo [7]: 1.13 h
- total protein half-life in vivo [10]: 2.22 ± 0.65 h

Sequence: MRLTSKGRYAVTAMLDVALNSEAGPVPLADISERQGISLSYLEQLFSRLRKNGLVSSVRGPGGGYLLGKDASSIAVGEVISAVDESVDATRCQGKGGCQGGDKCLTHALWRDLSDRLTGFLNNITLGELVNNQEVLDVSGRQHTHDAPRTRTQDAIDVKLRA [P0AGK8]
- total protein half-life in vivo [1]: 5.43 ± 0.76 h
- total protein half-life in vivo [2]: 2.85 ± 0.1 h
- total protein half-life in vivo [11]: 1.38 ± 0.36 h
- total protein half-life in vivo [3]: 1.43 ± 0.34 h
- total protein half-life in vivo [4]: 1.04 ± 0.058 h
- total protein half-life in vivo [12]: 1.22 ± 0.076 h
- total protein half-life in vivo [5]: 1.76 ± 0.058 h
- total protein half-life in vivo [6]: 2.04 ± 0.57 h
- total protein half-life in vivo [7]: 1.057 ± 0.0037 h
- total protein half-life in vivo [8]: 1.37 ± 0.1 h
- total protein half-life in vivo [9]: 1.53 ± 0.5 h
- total protein half-life in vivo [10]: 2.18 ± 0.6 h

Sequence: MMKMRWLSAAVMLTLYTSSSWAFSIDDVAKQAQSLAGKGYETPKSNLPSVFRDMKYADYQQIQFNHDKAYWNNLKTPFKLEFYHQGMYFDTPVKINEVTATAVKRIKYSPDYFTFGDVQHDKDTVKDLGFAGFKVLYPINSKDKNDEIVSMLGASYFRVIGAGQVYGLSARGLAIDTALPSGEEFPRFKEFWIERPKPTDKRLTIYALLDSPRATGAYKFVVMPGRDTVVDVQSKIYLRDKVGKLGVAPLTSMFLFGPNQPSPANNYRPELHDSNGLSIHAGNGEWIWRPLNNPKHLAVSSFSMENPQGFGLLQRGRDFSRFEDLDDRYDLRPSAWVTPKGEWGKGSVELVEIPTNDETNDNIVAYWTPDQLPEPGKEMNFKYTITFSRDEDKLHAPDNAWVQQTRRSTGDVKQSNLIRQPDGTIAFVVDFTGAEMKKLPEDTPVTAQTSIGDNGEIVESTVRYNPVTKGWRLVMRVKVKDAKKTTEMRAALVNADQTLSETWSYQLPANE
- total protein half-life in vivo [1]: 6.373 ± 0.046 h
- total protein half-life in vivo [11]: 6.94 ± 1 h
- total protein half-life in vivo [3]: 6.34 ± 0.17 h
- total protein half-life in vivo [4]: 5.91 ± 0.29 h
- total protein half-life in vivo [12]: 3.25 ± 0.11 h
- total protein half-life in vivo [5]: 6.12 ± 0.11 h
- total protein half-life in vivo [6]: 12.4 ± 0.37 h
- total protein half-life in vivo [7]: 6.43 ± 0.094 h
- total protein half-life in vivo [8]: 12.6 ± 0.2 h
- total protein half-life in vivo [9]: 6.37 ± 0.39 h
- total protein half-life in vivo [10]: 12.9 ± 0.14 h

Sequence: MKKGFMLFTLLAAFSGFAQADDAAIQQTLAKMGIKSSDIQPAPVAGMKTVLTNSGVLYITDDGKHIIQGPMYDVSGTAPVNVTNKMLLKQLNALEKEMIVYKAPQEKHVITVFTDITCGYCHKLHEQMADYNALGITVRYLAFPRQGLDSDAEKEMKAIWCAKDKNKAFDDVMAGKSVAPASCDVDIADHYALGVQLGVSGTPAVVLSNGTLVPGYQPPKEMKEFLDEHQKMTSGK [P0AEG6]
- total protein half-life in vivo [1]: 5.41 ± 0.26 h
- total protein half-life in vivo [2]: 5.77 ± 0.5 h
- total protein half-life in vivo [11]: 6.69 ± 0.64 h
- total protein half-life in vivo [3]: 6.3 ± 0.28 h
- total protein half-life in vivo [4]: 6.38 ± 0.49 h
- total protein half-life in vivo [12]: 3.31 ± 0.52 h
- total protein half-life in vivo [5]: 5.7 ± 0.21 h
- total protein half-life in vivo [6]: 10.8 ± 1.6 h
- total protein half-life in vivo [7]: 5.8 ± 0.27 h
- total protein half-life in vivo [8]: 13.1 ± 2 h
- total protein half-life in vivo [9]: 5.93 ± 1.2 h
- total protein half-life in vivo [10]: 13.2 ± 0.74 h

Sequence: MPENYTPAAAATGTWTEEEIRHQPRAWIRSLTNIDALRSALNNFLEPLLRKENLRIILTGAGTSAFIGDIIAPWLASHTGKNFSAVPTTDLVTNPMDYLNPAHPLLLISFGRSGNSPESVAAVELANQFVPECYHLPITCNEAGALYQNAINSDNAFALLMPAETHDRGFAMTSSITTMMASCLAVFAPETINSQTFRDVADRCQAILTSLGDFSEGVFGYAPWKRIVYLGSGGLQGAARESALKVLELTAGKLAAFYDSPTGFRHGPKSLVDDETLVVVFVSSHPYTRQYDLDLLAELRRDNQAMRVIAIAAESSDIVAAGPHIILPPSRHFIDVEQAFCFLMYAQTFALMQSLHMGNTPDTPSASGTVNRVVQGVIIHPWQA
- total protein half-life in vivo [12]: 3.44 ± 0.35 h
- total protein half-life in vivo [5]: 3.18 h
- total protein half-life in vivo [6]: 5.91 h
